{"source": "patent US20220195012A1", "about": "(NATIONAL CENTRE FOR CELL SCIENCE, published 2022)", "test_in_all_cases": "cell-based or functional assay", "key": {"[1]": {"target": "C3b (UniProt P01024 23-667; P01024 749-1663, in the SPR assays biotinylated at the free -SH group with EZ-Link PEO-maleimide-activated biotin)", "sequence (P01024 23-667 limits assumed, chain 1 of 2)": "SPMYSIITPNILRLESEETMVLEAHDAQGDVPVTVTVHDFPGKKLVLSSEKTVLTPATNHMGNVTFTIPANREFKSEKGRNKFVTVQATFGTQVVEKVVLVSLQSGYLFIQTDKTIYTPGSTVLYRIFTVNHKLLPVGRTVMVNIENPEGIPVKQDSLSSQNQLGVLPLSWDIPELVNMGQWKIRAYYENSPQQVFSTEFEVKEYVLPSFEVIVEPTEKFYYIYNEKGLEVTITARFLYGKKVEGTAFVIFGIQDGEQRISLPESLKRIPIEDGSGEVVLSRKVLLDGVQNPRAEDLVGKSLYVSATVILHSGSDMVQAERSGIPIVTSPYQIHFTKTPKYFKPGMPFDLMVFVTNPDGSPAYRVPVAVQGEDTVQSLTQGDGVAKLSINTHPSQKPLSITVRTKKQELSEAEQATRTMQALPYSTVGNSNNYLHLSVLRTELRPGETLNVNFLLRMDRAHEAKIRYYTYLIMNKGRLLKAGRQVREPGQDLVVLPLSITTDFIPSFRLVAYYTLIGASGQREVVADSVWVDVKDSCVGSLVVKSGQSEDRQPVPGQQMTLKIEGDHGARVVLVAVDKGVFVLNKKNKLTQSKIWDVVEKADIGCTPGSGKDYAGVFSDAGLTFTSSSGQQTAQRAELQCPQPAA", "sequence (P01024 749-1663 limits assumed, chain 2 of 2)": "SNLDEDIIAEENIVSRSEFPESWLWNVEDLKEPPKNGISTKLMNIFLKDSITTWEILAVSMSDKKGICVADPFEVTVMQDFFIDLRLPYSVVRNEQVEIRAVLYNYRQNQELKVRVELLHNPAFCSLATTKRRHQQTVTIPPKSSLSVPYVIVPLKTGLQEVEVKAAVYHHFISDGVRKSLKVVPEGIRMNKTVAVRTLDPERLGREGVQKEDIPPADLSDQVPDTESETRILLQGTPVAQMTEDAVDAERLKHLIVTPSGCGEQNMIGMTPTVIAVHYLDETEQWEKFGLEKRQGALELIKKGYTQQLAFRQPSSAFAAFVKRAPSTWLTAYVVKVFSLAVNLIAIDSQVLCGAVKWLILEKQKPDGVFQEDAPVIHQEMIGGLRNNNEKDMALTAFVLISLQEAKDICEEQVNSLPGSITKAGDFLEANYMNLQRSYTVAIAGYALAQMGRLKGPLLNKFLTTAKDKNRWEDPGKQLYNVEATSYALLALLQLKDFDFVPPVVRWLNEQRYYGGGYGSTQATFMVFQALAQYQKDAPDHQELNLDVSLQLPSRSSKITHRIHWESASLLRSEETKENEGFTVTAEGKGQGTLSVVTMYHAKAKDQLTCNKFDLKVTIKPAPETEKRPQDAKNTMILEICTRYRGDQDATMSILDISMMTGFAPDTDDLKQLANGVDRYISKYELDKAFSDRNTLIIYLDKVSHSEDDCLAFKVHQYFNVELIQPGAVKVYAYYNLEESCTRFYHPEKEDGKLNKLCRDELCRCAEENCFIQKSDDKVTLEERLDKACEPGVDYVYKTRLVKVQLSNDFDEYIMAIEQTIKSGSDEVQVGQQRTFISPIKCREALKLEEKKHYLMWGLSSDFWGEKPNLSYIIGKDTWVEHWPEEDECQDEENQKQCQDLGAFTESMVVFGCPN"}, "[2]": {"target": "C4b (UniProt P0C0L4 757-1446; P0C0L4 20-675; P0C0L4 1454-1744, in the SPR assays biotinylated at the free -SH group with EZ-Link PEO-maleimide-activated biotin)", "sequence (P0C0L4 757-1446 limits assumed, chain 1 of 3)": "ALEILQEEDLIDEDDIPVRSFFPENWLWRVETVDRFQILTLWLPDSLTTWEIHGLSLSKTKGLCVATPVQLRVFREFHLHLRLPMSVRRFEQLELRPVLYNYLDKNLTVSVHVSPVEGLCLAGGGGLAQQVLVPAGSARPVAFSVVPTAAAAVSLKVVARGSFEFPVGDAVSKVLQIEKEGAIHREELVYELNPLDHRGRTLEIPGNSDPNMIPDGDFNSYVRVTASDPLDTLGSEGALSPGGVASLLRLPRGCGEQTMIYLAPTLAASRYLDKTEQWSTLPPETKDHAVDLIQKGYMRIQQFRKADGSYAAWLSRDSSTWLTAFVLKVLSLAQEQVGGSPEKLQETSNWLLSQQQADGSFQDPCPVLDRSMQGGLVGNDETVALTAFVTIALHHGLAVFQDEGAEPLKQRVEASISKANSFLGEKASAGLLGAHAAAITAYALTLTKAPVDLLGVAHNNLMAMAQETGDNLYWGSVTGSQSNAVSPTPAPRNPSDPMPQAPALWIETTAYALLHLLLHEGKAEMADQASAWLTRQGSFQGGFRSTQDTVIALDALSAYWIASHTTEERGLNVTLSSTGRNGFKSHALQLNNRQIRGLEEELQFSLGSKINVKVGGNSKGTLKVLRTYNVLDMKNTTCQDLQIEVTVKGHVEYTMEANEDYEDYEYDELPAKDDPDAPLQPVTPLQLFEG", "sequence (P0C0L4 20-675 limits assumed, chain 2 of 3)": "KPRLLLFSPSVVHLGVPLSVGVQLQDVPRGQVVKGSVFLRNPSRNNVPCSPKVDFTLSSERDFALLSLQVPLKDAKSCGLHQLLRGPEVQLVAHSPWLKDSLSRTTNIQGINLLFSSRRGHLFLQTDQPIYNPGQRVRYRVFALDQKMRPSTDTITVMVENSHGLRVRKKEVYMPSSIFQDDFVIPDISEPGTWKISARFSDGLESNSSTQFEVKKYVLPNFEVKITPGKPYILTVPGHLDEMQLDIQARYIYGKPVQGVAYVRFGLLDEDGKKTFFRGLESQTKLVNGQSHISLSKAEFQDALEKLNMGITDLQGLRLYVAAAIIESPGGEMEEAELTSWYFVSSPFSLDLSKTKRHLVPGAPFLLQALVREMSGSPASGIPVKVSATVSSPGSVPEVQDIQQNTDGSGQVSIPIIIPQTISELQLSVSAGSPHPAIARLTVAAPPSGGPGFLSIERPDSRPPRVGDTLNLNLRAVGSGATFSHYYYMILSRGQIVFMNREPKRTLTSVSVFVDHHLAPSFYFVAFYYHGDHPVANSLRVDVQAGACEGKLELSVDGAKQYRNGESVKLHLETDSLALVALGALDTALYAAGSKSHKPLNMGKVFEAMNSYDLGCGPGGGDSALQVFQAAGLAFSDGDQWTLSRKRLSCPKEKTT", "sequence (P0C0L4 1454-1744 limits assumed, chain 3 of 3)": "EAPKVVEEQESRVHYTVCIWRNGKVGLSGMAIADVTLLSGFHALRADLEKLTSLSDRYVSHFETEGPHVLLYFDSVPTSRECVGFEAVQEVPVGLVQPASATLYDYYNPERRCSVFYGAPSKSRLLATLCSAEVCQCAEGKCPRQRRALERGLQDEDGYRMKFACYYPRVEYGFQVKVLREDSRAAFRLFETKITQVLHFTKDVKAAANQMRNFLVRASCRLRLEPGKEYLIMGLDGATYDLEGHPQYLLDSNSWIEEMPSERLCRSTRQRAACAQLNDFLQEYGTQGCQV"}, "[3]": {"target": "T1, AP C3-convertase (C3bBb) (UniProt P01024 23-667; P01024 749-1663; P00751 260-764)", "T1 sequence (P01024 23-667 limits assumed, chain 1 of 3)": "as the sequence (P01024 23-667 limits assumed, chain 1 of 2) above", "T1 sequence (P01024 749-1663 limits assumed, chain 2 of 3)": "as the sequence (P01024 749-1663 limits assumed, chain 2 of 2) above", "T1 sequence (P00751 260-764 limits assumed, chain 3 of 3)": "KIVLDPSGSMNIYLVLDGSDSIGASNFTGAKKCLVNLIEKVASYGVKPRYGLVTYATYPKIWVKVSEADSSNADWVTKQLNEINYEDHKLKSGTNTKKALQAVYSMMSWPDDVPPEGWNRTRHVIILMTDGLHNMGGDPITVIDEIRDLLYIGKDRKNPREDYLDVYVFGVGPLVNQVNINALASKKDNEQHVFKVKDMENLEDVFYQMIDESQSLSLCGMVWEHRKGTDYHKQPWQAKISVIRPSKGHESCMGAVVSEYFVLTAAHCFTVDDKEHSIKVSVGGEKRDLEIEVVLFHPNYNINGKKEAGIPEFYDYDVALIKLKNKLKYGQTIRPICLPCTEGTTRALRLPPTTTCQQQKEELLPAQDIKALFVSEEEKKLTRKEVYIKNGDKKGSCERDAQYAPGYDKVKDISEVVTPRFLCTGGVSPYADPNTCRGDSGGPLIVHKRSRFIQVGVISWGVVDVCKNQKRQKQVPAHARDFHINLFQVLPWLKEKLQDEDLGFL"}, "[4]": {"target": "T2, CP C3-convertase (C4b2a) (UniProt P0C0L4 757-1446; P0C0L4 20-675; P0C0L4 1454-1744; P06681 244-752)", "T2 sequence (P0C0L4 757-1446 limits assumed, chain 1 of 4)": "as the sequence (P0C0L4 757-1446 limits assumed, chain 1 of 3) above", "T2 sequence (P0C0L4 20-675 limits assumed, chain 2 of 4)": "as the sequence (P0C0L4 20-675 limits assumed, chain 2 of 3) above", "T2 sequence (P0C0L4 1454-1744 limits assumed, chain 3 of 4)": "as the sequence (P0C0L4 1454-1744 limits assumed, chain 3 of 3) above", "T2 sequence (P06681 244-752 limits assumed, chain 4 of 4)": "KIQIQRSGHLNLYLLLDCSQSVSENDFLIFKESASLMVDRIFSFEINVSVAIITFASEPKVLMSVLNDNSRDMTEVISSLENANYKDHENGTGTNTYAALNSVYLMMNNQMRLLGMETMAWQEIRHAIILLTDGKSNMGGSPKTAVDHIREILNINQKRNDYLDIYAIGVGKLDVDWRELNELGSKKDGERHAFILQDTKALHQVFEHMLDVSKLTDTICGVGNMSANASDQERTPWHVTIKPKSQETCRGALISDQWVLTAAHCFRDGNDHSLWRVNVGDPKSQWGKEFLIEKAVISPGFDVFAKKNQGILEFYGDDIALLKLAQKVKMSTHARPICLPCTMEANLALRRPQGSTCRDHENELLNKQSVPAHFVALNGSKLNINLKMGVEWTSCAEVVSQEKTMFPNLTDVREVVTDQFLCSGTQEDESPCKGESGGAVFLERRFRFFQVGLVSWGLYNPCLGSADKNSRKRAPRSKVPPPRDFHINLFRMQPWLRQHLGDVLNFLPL"}, "[5]": {"target": "T1, AP C3-convertase (C3bBb)", "remark": "listed apart in the source"}, "[6]": {"target": "T2, CP C3-convertase (C4b2a)", "remark": "listed apart in the source"}}, "note": "Where “and” joins values, the source holds several entries; their conditions need not be identical. Identical values can stand only once."}
{"binder": "D2D3M3M4 (Multi-4) (other) CEVPTRLNSASLKQPYITQNYFPVGTVVEYECRPGYRREPSLSPKLTCLQNLKWSTAVEFCKKKSCPNPGEIRNGQIDVPGGILFGATISFSCNTGYKLIGKTSSFCLISGSSVQWSDKLPICEKVLCTPPPKIKNGKHTFSEVEVFEYLDAVTYSCDPAPGPDPFSLIGESTIYCGDNSVWSRAAPECKVVKCRFPVVENGKQISGFGKKFYYKATVMFECDKGFYLDGSDTIVCDSNSTWDPPVPKCLKVL", "values": [{"measurement": "C3b CFA: Time (min.) for 50% cleavage of C3B α′-chain", "setting": "[1]", "value": 17.5, "unit": "min"}, {"measurement": "Relative C3b CFA", "setting": "[1]", "value": 0.25}, {"measurement": "C4b CFA: Time (min.) for 50% cleavage of C4B α′-chain", "setting": "[2]", "value": 5.5, "unit": "min"}, {"measurement": "Relative C4b CFA", "setting": "[2]", "value": 1.7}, {"measurement": "AP-DAA IC50", "setting": "[3]", "value": "> 0.01", "unit": "µM"}, {"measurement": "Relative AP-DAA", "setting": "[3]", "value": "< 0.3"}, {"measurement": "CP-DAA IC50", "setting": "[4]", "value": 39.3, "unit": "µM"}, {"measurement": "Relative CP-DAA", "setting": "[4]", "value": 0.4}]}
{"binder": "D2D3M3M4 (DAF-MCP chimera) (other) CEVPTRLNSASLKQPYITQNYFPVGTVVEYECRPGYRREPSLSPKLTCLQNLKWSTAVEFCKKKSCPNPGEIRNGQIDVPGGILFGATISFSCNTGYKLFGSTSSFCLISGSSVQWSDPLPECREIYCTPPPKIKNGKHTFSEVEVFEYLDAVTYSCDPAPGPDPFSLIGESTIYCGDNSVWSRAAPECKVVKCRFPVVENGKQISGFGKKFYYKATVMFECDKGFYLDGSDTIVCDSNSTWDPPVPKCLKVL", "values": [{"measurement": "AP-DAA IC50", "setting": "[3]", "value": "0.0024 µM and 0.0021 µM"}]}
{"binder": "Human MCP (M1-M4), membrane cofactor protein (other) CEEPPTFEAMELIGKPKPYYEIGERVDYKCKKGYFYIPPLATHTICDRNHTWLPVSDDACYRETCPYIRDPLNGQAVPANGTYEFGYQMHFICNEGYYLIGEEILYCELKGSVAIWSGKPPICEKVLCTPPPKIKNGKHTFSEVEVFEYLDAVTYSCDPAPGPDPFSLIGESTIYCGDNSVWSRAAPECKVVKCRFPVVENGKQISGFGKKFYYKATVMFECDKGFYLDGSDTIVCDSNSTWDPPVPKCLKVL", "values": [{"measurement": "Relative C3b CFA", "setting": "[1]", "value": 1}, {"measurement": "Relative C4b CFA", "setting": "[2]", "value": 1}]}
{"binder": "Human DAF (D1-D4), decay-accelerating factor (other) CGLPPDVPNAQPALEGRTSFPEDTVITYKCEESFVKIPGEKDSVICLKGSQWSDIEEFCNRSCEVPTRLNSASLKQPYITQNYFPVGTVVEYECRPGYRREPSLSPKLTCLQNLKWSTAVEFCKKKSCPNPGEIRNGQIDVPGGILFGATISFSCNTGYKLFGSTSSFCLISGSSVQWSDPLPECREIYCPAPPQIDNGIIQGERDHYGYRQSVTYACNKGFTMIGEHSIYCTVNNDEGEWSGPPPECRGKS", "values": [{"measurement": "AP-DAA IC50", "setting": "[3]", "value": "0.0031 µM and 0.0023 µM and 0.0011 µM"}, {"measurement": "Relative CP-DAA", "setting": "[4]", "value": 1}]}
{"binder": "D2M2-4 (DAF-MCP chimera with the DAF D2-D3 linker) (other) CEVPTRLNSASLKQPYITQNYFPVGTVVEYECRPGYRREPSLSPKLTCLQNLKWSTAVEFCKKKSCPYIRDPLNGQAVPANGTYEFGYQMHFICNEGYYLIGEEILYCELKGSVAIWSGKPPICEKVLCTPPPKIKNGKHTFSEVEVFEYLDAVTYSCDPAPGPDPFSLIGESTIYCGDNSVWSRAAPECKVVKCRFPVVENGKQISGFGKKFYYKATVMFECDKGFYLDGSDTIVCDSNSTWDPPVPKCLKVL", "values": [{"measurement": "AP-DAA IC50", "setting": "[3]", "value": "> 0.019", "unit": "µM"}, {"measurement": "Relative AP-DAA", "setting": "[3]", "value": "< 0.1"}, {"measurement": "CP-DAA IC50", "setting": "[4]", "value": 457, "unit": "µM"}, {"measurement": "Relative CP-DAA", "setting": "[4]", "value": 0.03}]}
{"binder": "D2M2-4 (L161K) (other) CEVPTRLNSASLKQPYITQNYFPVGTVVEYECRPGYRREPSLSPKLTCLQNLKWSTAVEFCKKKSCPYIRDPLNGQAVPANGTYEFGYQMHFICNEGYYLIGEEILYCELKGSVAIWSGKPPICEKVKCTPPPKIKNGKHTFSEVEVFEYLDAVTYSCDPAPGPDPFSLIGESTIYCGDNSVWSRAAPECKVVKCRFPVVENGKQISGFGKKFYYKATVMFECDKGFYLDGSDTIVCDSNSTWDPPVPKCLKVL", "values": [{"measurement": "AP-DAA, fold gain compared to D2M2-4", "setting": "[5]", "value": 3.4, "unit": "fold"}, {"measurement": "CP-DAA, fold increase", "setting": "[6]", "value": "~2", "unit": "fold"}]}
{"binder": "D2M2-4 (Y101N) (other) CEVPTRLNSASLKQPYITQNYFPVGTVVEYECRPGYRREPSLSPKLTCLQNLKWSTAVEFCKKKSCPNIRDPLNGQAVPANGTYEFGYQMHFICNEGYYLIGEEILYCELKGSVAIWSGKPPICEKVLCTPPPKIKNGKHTFSEVEVFEYLDAVTYSCDPAPGPDPFSLIGESTIYCGDNSVWSRAAPECKVVKCRFPVVENGKQISGFGKKFYYKATVMFECDKGFYLDGSDTIVCDSNSTWDPPVPKCLKVL", "values": [{"measurement": "AP-DAA, fold increase compared to D2M2-4", "setting": "[5]", "value": 7.2, "unit": "fold"}]}
{"binder": "D2M2-4 (I134A) (other) CEVPTRLNSASLKQPYITQNYFPVGTVVEYECRPGYRREPSLSPKLTCLQNLKWSTAVEFCKKKSCPYIRDPLNGQAVPANGTYEFGYQMHFICNEGYYLAGEEILYCELKGSVAIWSGKPPICEKVLCTPPPKIKNGKHTFSEVEVFEYLDAVTYSCDPAPGPDPFSLIGESTIYCGDNSVWSRAAPECKVVKCRFPVVENGKQISGFGKKFYYKATVMFECDKGFYLDGSDTIVCDSNSTWDPPVPKCLKVL", "values": [{"measurement": "AP-DAA, fold gain compared to D2M2-4", "setting": "[5]", "value": 6.7, "unit": "fold"}, {"measurement": "CP-DAA, fold increase", "setting": "[6]", "value": "~2", "unit": "fold"}]}
{"binder": "D2M2-4 (E136Q) (D2) (other) CEVPTRLNSASLKQPYITQNYFPVGTVVEYECRPGYRRQPSLSPKLTCLQNLKWSTAVEFCKKKSCPYIRDPLNGQAVPANGTYEFGYQMHFICNEGYYLIGEEILYCELKGSVAIWSGKPPICEKVLCTPPPKIKNGKHTFSEVEVFEYLDAVTYSCDPAPGPDPFSLIGESTIYCGDNSVWSRAAPECKVVKCRFPVVENGKQISGFGKKFYYKATVMFECDKGFYLDGSDTIVCDSNSTWDPPVPKCLKVL", "values": [{"measurement": "AP-DAA, fold increase compared to D2M2-4", "setting": "[5]", "value": 5.6, "unit": "fold"}]}
{"binder": "D2M2-4 (ML) (DAF-MCP chimera with the MCP M1-M2 linker YRET) (other) CEVPTRLNSASLKQPYITQNYFPVGTVVEYECRPGYRREPSLSPKLTCLQNLKWSTAVEFCYRETCPYIRDPLNGQAVPANGTYEFGYQMHFICNEGYYLIGEEILYCELKGSVAIWSGKPPICEKVLCTPPPKIKNGKHTFSEVEVFEYLDAVTYSCDPAPGPDPFSLIGESTIYCGDNSVWSRAAPECKVVKCRFPVVENGKQISGFGKKFYYKATVMFECDKGFYLDGSDTIVCDSNSTWDPPVPKCLKVL", "values": [{"measurement": "AP-DAA IC50", "setting": "[3]", "value": "> 0.01", "unit": "µM"}, {"measurement": "Relative AP-DAA", "setting": "[3]", "value": "< 0.1"}, {"measurement": "CP-DAA IC50", "setting": "[4]", "value": "> 1000", "unit": "µM"}, {"measurement": "Relative CP-DAA", "setting": "[4]", "value": "< 0.01"}]}
